Assay [1] addresses CAT-2200 lambda light chain, wild type (L1), N-terminal FLAG tag. Description: LCCA, SPR of light chain tags.
Assay [2] has as its target Pertuzumab kappa light chain S131K_L135W_S176K. Description: LCCA.
Assay [3] deals with Pertuzumab kappa light chain S131K_S176K. Nature of the assay: LCCA.
The target is the same in assay [4]. Nature of the assay: LCCA. The source holds these as a separate data set.
Assay [5] shares this target. Nature of the assay: LCCA. The source holds these as a separate data set.
Assay [6] shares this target. Nature of the assay: LCCA. The source holds these as a separate data set.
Assay [7] concerns the target Pertuzumab kappa light chain S121K_S131K_S176K. Nature of the assay: LCCA.
Assay [8] has the same target. Nature of the assay: LCCA. The source holds these as a separate data set.
The target of assay [9] is Pertuzumab kappa light chain V133G_S176D_T180E. Nature of the assay: LCCA.
The target in assay [10] is Pertuzumab kappa light chain V133G_L135W_S176D. Description: LCCA.
Assay [11] concerns the target Pertuzumab kappa light chain V133G_L135W_S176D_T180E. Nature of the assay: LCCA.
The target of assay [12] is CAT-2200 lambda light chain Y178K. Nature of the assay: LCCA.
For assay [13], the target named is Pertuzumab kappa light chain V133G_S176D. Nature of the assay: LCCA.
In assay [14] the target is CAT-2200 lambda light chain S122D_Y178K. Nature of the assay: LCCA.
The target of assay [15] is Pertuzumab kappa light chain S121K_V133G_S176D. Nature of the assay: LCCA.
The target in assay [16] is Pertuzumab kappa light chain Q124E_V133G_S176D. Nature of the assay: LCCA.
In assay [17] the target is Pertuzumab kappa light chain Q124E_V133G_S176D_T180E. Nature of the assay: LCCA.
The target in assay [18] is Pertuzumab kappa light chain Q124E_V133G_S176D_T178E_T180E. Nature of the assay: LCCA.
Assay [19] concerns the target Pertuzumab kappa light chain Q124E_V133G_S176D. Nature of the assay: LCCA. This is another data set of the same source.
In assay [20] the target is Pertuzumab kappa light chain Q124E_V133G_S176D_T180E. Nature of the assay: LCCA. This is another data set of the same source.
Assay [21] concerns the target Pertuzumab kappa light chain V133G_L135A_S176D_T180E. Nature of the assay: LCCA, SPR tag read-out.
Assay [22] addresses Pertuzumab kappa light chain S121K_V133G_S176D_T180E. Nature of the assay: LCCA, SPR tag read-out.
In assay [23] the target is CAT-2200 lambda light chain S122D_Y178K. Nature of the assay: LCCA, SPR tag read-out.
In assay [24] the target is Pertuzumab kappa light chain S121K_V133G_S176D_T180E. Nature of the assay: LCCA, SPR tag read-out. The source holds these as a separate data set.
The target is the same in assay [25]. Nature of the assay: LCCA, SPR tag read-out. This is another data set of the same source.
The target of assay [26] is CAT-2200 lambda light chain S122D_K129T_S180E. Description: LCCA.
Assay [27] has the same target. Nature of the assay: LCCA. This is another data set of the same source.
For assay [28], the target named is Pertuzumab kappa light chain S121K_Q124R_T178R. Description: LCCA.
The target of assay [29] is Pertuzumab kappa light chain S121K_Q124R_Q160K_T178R. Nature of the assay: LCCA.
The target of assay [30] is Pertuzumab kappa light chain S121K_Q124R_T178R. Nature of the assay: LCCA, SPR tag read-out.
In assay [31] the target is CAT-2200 lambda light chain S122D_K129T_S176E_Y178E. Nature of the assay: LCCA, SPR tag read-out.
In assay [32] the target is Pertuzumab kappa light chain S121K_Q124R_T178R. Nature of the assay: LCCA, SPR tag read-out. This is another data set of the same source.
In assay [33] the target is CAT-2200 lambda light chain S122D_K129T_V133D. Nature of the assay: LCCA, SPR tag read-out.
Assay [34] addresses CAT-2200 lambda light chain S122D_K129T_S176D_Y178T. Nature of the assay: LCCA, SPR tag read-out.
Assay [35] deals with Pertuzumab kappa light chain S121K_Q124R_T178R. Description: LCCA, SPR tag read-out. The source holds these as a separate data set.
Assay [36] has as its target Pertuzumab kappa light chain Q124K_L135A_T178R. Nature of the assay: LCCA.
The target in assay [37] is Pertuzumab kappa light chain Q124R_L135A_Q160K_T178R. Nature of the assay: LCCA.
In assay [38] the target is Pertuzumab kappa light chain Q124R_L135A_T178R. Description: LCCA, SPR tag read-out.
The target of assay [39] is CAT-2200 lambda light chain T116F_K129T_V133D_S176F. Description: LCCA, SPR tag read-out.
Assay [40] concerns the target CAT-2200 lambda light chain E124Q_T131R. Description: LCCA, SPR tag read-out.
The target of assay [41] is Pertuzumab kappa light chain Q124E_V133D. Description: LCCA, SPR.
For assay [42], the target named is CAT-2200 lambda light chain E124Q_T131R. Description: LCCA, SPR tag read-out. This is another data set of the same source.
For assay [43] the target is unchanged. Nature of the assay: LCCA, SPR.
Assay [44] addresses Pertuzumab kappa light chain Q124E_V133D_T180D. Description: LCCA, SPR tag read-out.
Assay [45] has as its target Pertuzumab kappa light chain Q124E_V133D_L135W_T180D. Nature of the assay: LCCA, SPR tag read-out.
In assay [46] the target is Pertuzumab kappa light chain Q124E_V133D_L135W. Nature of the assay: LCCA, SPR tag read-out.
Assay [47] addresses CAT-2200 lambda light chain S122D_E124Q_T131R. Nature of the assay: LCCA, SPR tag read-out.
Assay [48] addresses Pertuzumab kappa light chain S121K_Q124E_V133D_T180D. Description: LCCA, SPR tag read-out.
Assay [49] addresses Pertuzumab kappa light chain S121K_Q124E_V133D. Nature of the assay: LCCA, SPR tag read-out.
For assay [50], the target named is Pertuzumab kappa light chain Q124E_V133D_S176D_T178E. Description: LCCA.
In assay [51] the target is Pertuzumab kappa light chain Q124E_V133D_T178E. Description: LCCA.
For assay [52], the target named is Pertuzumab kappa light chain Q124E_V133D_S176D_T178E. Description: LCCA. This is another data set of the same source.
Assay [53] concerns the target Pertuzumab kappa light chain Q124E_V133D_T178E. Description: LCCA. The source holds these as a separate data set.
In assay [54] the target is Pertuzumab kappa light chain Q124E_V133D_S176D_T178D. Nature of the assay: LCCA, SPR tag read-out.
The target of assay [55] is Pertuzumab kappa light chain Q124E_V133D_S176D_T178E. Description: LCCA, SPR tag read-out.
Assay [56] has as its target Pertuzumab kappa light chain S121K_S176E_T178E. Description: LCCA.
Assay [57] addresses CAT-2200 lambda light chain S122D_E124Q_T131R. Description: LCCA, SPR tag read-out. The source holds these as a separate data set.
In assay [58] the target is Pertuzumab kappa light chain S121K_V133I_S176D_T178E. Nature of the assay: LCCA, SPR tag read-out.
For assay [59], the target named is Pertuzumab kappa light chain S121K_S131D_V133G_T178F. Description: LCCA, SPR tag read-out.
Assay [60] concerns the target Pertuzumab kappa light chain V133I_L135A_S176D_T178E. Nature of the assay: LCCA, SPR tag read-out.

Where two headings read alike, the source gives them in different places.

“CAT-2200 Fab heavy chain, wild type (H1), ABD2-His6 tagged” yielded an H1L1:H1L2 normalized median scalar value ln(r1/f1) in assay [1] of 0.48.

Turning to Pertuzumab Fab heavy chain K145T_S186E, the H2L2:H2L1 median scalar value in [2] was -0.33 ln; in assay [3] it was 0.9 ln; in [4] it was 2.25 ln; in assay [5], 0.53 ln; in assay [6] it was 1.58 ln.

On to “Pertuzumab Fab heavy chain K145T_S186E_K228D”, for which the H2L2:H2L1 median scalar value in assay [7] was determined as 1.21 ln; in [8] it was 0.33 ln.

As for Pertuzumab Fab heavy chain L124R, the H2L2:H2L1 median scalar value in assay [9] is 2.34 ln; in [10], 0.55 ln; in assay [11], 0.29 ln; in assay [13], 2.2 ln. For the same substance, the H2L2:H2L1 normalized median ratio worked out at 91% in [9] and 9% in assay [12].

With Pertuzumab Fab heavy chain L124R_K228D, the H2L2:H2L1 normalized median ratio in assay [14] turned out to be 33%. Also, in assay [15], the H2L2:H2L1 median scalar value is 1.97 ln and the H2L2:H2L1 normalized median ratio is 67%.

As to Pertuzumab Fab heavy chain L124R_L143K, the H2L2:H2L1 median scalar value in assay [16] worked out at 0.45 ln; in [17] it was 0.35 ln; in assay [18], 0.07 ln; in [19], 0.55 ln; in assay [20], 0.25 ln. Moreover, the H2L2:H2L1 normalized median ratio in assay [12] turned out to be 49%; in [18], 51%.

For the substance “Pertuzumab Fab heavy chain L124R_S186K_V190F”, in assay [21], the H2L2:H2L1 median scalar value was -0.44 ln(ratio).

As for “Pertuzumab Fab heavy chain L124R_S186R_K228D”, the H2L2:H2L1 median scalar value in assay [22] is 1.83 ln(ratio); in assay [24] it was -0.52 ln(ratio); in assay [25], -0.49 ln(ratio). Besides, the H2L2:H2L1 normalized median ratio in [22] was 66%; in assay [23], 34%.

“Pertuzumab Fab heavy chain L143E_K145T_Q179E_K228D”: the H2L2:H2L1 normalized median ratio in assay [26] worked out at 25%; in assay [27], 33%; in assay [28] it was 67%; in assay [29], 75%; in [30], 66%; in assay [31], 5%. Moreover, the H2L2:H2L1 normalized median ratio in assay [32] is 95%; in [33] it was 34%; in assay [34], 8%; in [35] it was 92%. Further, the H2L2:H2L1 median scalar value in assay [28] is 0.72 ln; in [29], 1.15 ln; in [30], 1.1 ln(ratio); in [32], 3.5 ln(ratio); in assay [35] it was 2.56 ln(ratio).

For “Pertuzumab Fab heavy chain L143E_K145T_Q179E_V190F”, the H2L2:H2L1 median scalar value in [36] was -0.51 ln; in assay [37] it was -0.29 ln; in assay [38], 0.99 ln(ratio). In addition, the H2L2:H2L1 normalized median ratio in [38] amounted to 73%; in [39] it was 27%.

With Pertuzumab Fab heavy chain L143R, the H2L2:H2L1 normalized median ratio in assay [40] was found to be 11%; in [41], 96%; in assay [42] it was 15%; in assay [43], 4%; in assay [44], 85%; in assay [46], 89%. Besides, the H2L2:H2L1 normalized median scalar value ln(r1/f1) in assay [41] came to 3.06. In addition, the H2L2:H2L1 median scalar value is 1.72 ln(ratio) in [44], 0.87 ln(ratio) in [45] and 2.13 ln(ratio) in [46].

For Pertuzumab Fab heavy chain L143R_K228D, the H2L2:H2L1 normalized median ratio was 26% in assay [47] and 74% in assay [49]. Moreover, the H2L2:H2L1 median scalar value in assay [48] is -0.2 ln(ratio); in assay [49], 1.08 ln(ratio).

Pertuzumab Fab heavy chain L143R_S188K: the H2L2:H2L1 median scalar value was -0.02 ln in assay [50]; 1.31 ln in assay [51]; 1.21 ln in assay [52]; 1.45 ln in assay [53]; 0.02 ln(ratio) in assay [54]; 1.21 ln(ratio) in assay [55]. Further, the H2L2:H2L1 normalized median ratio in assay [12] is 22%.

As to Pertuzumab Fab heavy chain S188K_K228D, the H2L2:H2L1 median scalar value in assay [56] is 2.83 ln; in assay [58] it was 1.74 ln(ratio); in assay [59] it was -0.08 ln(ratio). Besides, the H2L2:H2L1 normalized median ratio in [57] amounted to 15%; in assay [47], 53%; in assay [58], 85%; in assay [59], 47%.

On to Pertuzumab Fab heavy chain S188K_V190F, for which the H2L2:H2L1 median scalar value in [60] is 0.88 ln(ratio).

The record behind these values is patent publication US20190338048A1.
